{
  "source": "patent US20260201061A1",
  "about": "“COMBINATION FOR TREATMENT AND PREVENTION OF CANCER” (Hummingbird Bioscience Pte. Ltd., priority 2022, published 2026)",
  "origin": "cited, not measured here",
  "data": [
    {"molecular_target": "HER3 (Homo sapiens, UniProt P21860)", "values": [
      {"molecule": "Patritumab: anti-HER3 antibody [reference compound]", "inhibition of binding of heregulin (HRG)/ligand to HER3": "inhibit HER3-mediated signaling by blocking binding of heregulin (HRG) to HER3"},
      {"molecule": "seribantumab: anti-HER3 antibody (antibody, chains of the INN, looked up) heavy: EVQLLESGGGLVQPGGSLRLSCAASGFTFSHYVMAWVRQAPGKGLEWVSSISSSGGWTLYADSVKGRFTISRDNSKNTLYLQMNSLRAEDTAVYYCTRGLKMATIFDYWGQGTLVTVSSASTKGPSVFPLAPCSRSTSESTAALGCLVKDYFPEPVTVSWNSGALTSGVHTFPAVLQSSGLYSLSSVVTVPSSNFGTQTYTCNVDHKPSNTKVDKTVERKCCVECPPCPAPPVAGPSVFLFPPKPKDTLMISRTPEVTCVVVDVSHEDPEVQFNWYVDGVEVHNAKTKPREEQFNSTFRVVSVLTVVHQDWLNGKEYKCKVSNKGLPAPIEKTISKTKGQPREPQVYTLPPSREEMTKNQVSLTCLVKGFYPSDIAVEWESNGQPENNYKTTPPMLDSDGSFFLYSKLTVDKSRWQQGNVFSCSVMHEALHNHYTQKSLSLSPG light: QSALTQPASVSGSPGQSITISCTGTSSDVGSYNVVSWYQQHPGKAPKLIIYEVSQRPSGVSNRFSGSKSGNTASLTISGLQTEDEADYYCCSYAGSSIFVIFGGGTKVTVLGQPKAAPSVTLFPPSSEELQANKATLVCLVSDFYPGAVTVAWKADGSPVKVGVETTKPSKQSNNKYAASSYLSLTPEQWKSHRSYSCRVTHEGSTVEKTVAPAECS", "inhibition of binding of heregulin (HRG)/ligand to HER3": "inhibit HER3-mediated signaling by blocking binding of heregulin (HRG) to HER3"},
      {"molecule": "ISU104: anti-HER3 antibody, mainly binds to domain III of HER3 (antibody, chains of the INN, looked up, V domains shown) VH: EVQLLESGGGLVQPGGSLRLSCAASGFTFSDYDMSWVRQAPGKGLEWVSTIDLDSGSIYYADSVQGRFTISRDNSKNTLYLQMNSLRAEDTAVYYCAKDLHMGPEGPFDYWGQGTLVTVSS VL: QSVLTQPPSASGTPGQRVTISCSGSSSNIGSNSVSWYQQLPGTAPKLLIYSDNHRPSGVPDRFSGSKSGTSASLAISGLRSEDEADYYCQGWDTSLSGHVFGGGTKLTVL", "inhibition of binding of heregulin (HRG)/ligand to HER3": "dose-dependent inhibition of binding of HRG to HER3"}
    ]}
  ]
}
